# Measurements published in IntAct's records for PubMed 20595257.
# B1: Phage shock protein C (Escherichia coli (strain K12)), P0AFN2 (parent)
# chain: MAGINLNKKLWRIPQQGMVRGVCAGIANYFDVPVKLVRILVVLSIFFGLALFTLVAYIILSFALDPMPDNMAFGEQLPSSSELLDEVDRELAASETRLREMERYVTSDTFTLRSRFRQL
# partner: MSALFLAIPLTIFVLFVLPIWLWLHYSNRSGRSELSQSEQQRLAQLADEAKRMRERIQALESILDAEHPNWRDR
# B2: Aerobic respiration control sensor protein ArcB (Escherichia coli (strain K12)), P0AEC3 (parent)
# chain: MKQIRLLAQYYVDLMMKLGLVRFSMLLALALVVLAIVVQMAVTMVLHGQVESIDVIRSIFFGLLITPWAVYFLSVVVEQLEESRQRLSRLVQKLEEMRERDLSLNVQLKDNIAQLNQEIAVREKAEAELQETFGQLKIEIKEREETQIQLEQQSSFLRSFLDASPDLVFYRNEDKEFSGCNRAMELLTGKSEKQLVHLKPADVYSPEAAAKVIETDEKVFRHNVSLTYEQWLDYPDGRKACFEIRKVPYYDRVGKRHGLMGFGRDITERKRYQDALERASRDKTTFISTISHELRTPLNGIVGLSRILLDTELTAEQEKYLKTIHVSAVTLGNIFNDIIDMDKMERRKVQLDNQPVDFTSFLADLENLSALQAQQKGLRFNLEPTLPLPHQVITDGTRLRQILWNLISNAVKFTQQGQVTVRVRYDEGDMLHFEVEDSGIGIPQDELDKIFAMYYQVKDSHGGKPATGTGIGLAVSRRLAKNMGGDITVTSEQGKGSTFTLTIHAPSVAEEVDDAFDEDDMPLPALNVLLVEDIELNVIVARSVLEKLGNSVDVAMTGKAALEMFKPGEYDLVLLDIQLPDMTGLDISRELTKRYPREDLPPLVALTANVLKDKQEYLNAGMDDVLSKPLSVPALTAMIKKFWDTQDDEESTVTTEENSKSEALLDIPMLEQYLELVGPKLITDGLAVFEKMMPGYVSVLESNLTAQDKKGIVEEGHKIKGAAGSVGLRHLQQLGQQIQSPDLPAWEDNVGEWIEEMKEEWRHDVEVLKAWVAKATKK
# partner: B1 partner
# B3: Phage shock protein B (Escherichia coli (strain K12)), P0AFM9 (parent)
# chain: B1 partner
# partner: B1 chain
# B4: Phage shock protein C (Escherichia coli (strain K12)), P0AFN2 (parent)
# chain: B1 chain
# B5: Aerobic respiration control sensor protein ArcB (Escherichia coli (strain K12)), P0AEC3 (parent)
# chain: B2 chain
# partner: B1 chain
# B6: Aerobic respiration control sensor protein ArcB (Escherichia coli (strain K12)), P0AEC3 (parent)
# chain: B2 chain
# Variants of: B1
# Details: with pspb_ecoli pspB
row,Variant,effect of a mutation on the interaction
1,MAGINLNKKLWRIPQQGMVRGVCAGIANYFDVPVKLVRILVVLSIFFGLALFTLVAYIILSFALDPMPDNMAFAEQLPSSSELLDEVDRELAASETRLREMERYVTSDTFTLRSRFRQL,with no effect
2,MAGINLNKKLWRIPQQGMVRGVCAGIANYFDVPVKLVRILVVLSIFFALALFTLVAYIILSFALDPMPDNMAFGEQLPSSSELLDEVDRELAASETRLREMERYVTSDTFTLRSRFRQL,with no effect

# Variants of: B2
# Details: with pspb_ecoli pspB
row,Variant,effect of a mutation on the interaction
1,L87A;L90A;L94A;M97A,with no effect

# Variants of: B3
# Details: with pspc_ecoli pspC
row,Variant,effect of a mutation on the interaction
1,MSALFLAIPATIFVAFVAPIWLWLHYSNRSGRSELSQSEQQRLAQLADEAKRMRERIQALESILDAEHPNWRDR,with no effect

# Variants of: B4
# Details: with pspa_ecoli pspA
row,Variant,effect of a mutation on the interaction
1,MAGINLNKKLWRIPQQGMVRGVCAGIANYFDVPVKLVRILVVLSIFFGLALFTLVAYIILSFALDPMPDNMAFGEQLPSSSELLDEVDREAAASETRAREMERYVTSDTFTLRSRFRQL,disrupting interaction strength
2,MAGINLNKKLWRIPQQGMVRGVCAGIANYFDVPVKLVRILVVLSIFFGLALFTLVAYIILSFALDPMPDNMAFAEQLPSSSELLDEVDRELAASETRLREMERYVTSDTFTLRSRFRQL,with no effect
3,MAGINLNKKLWRIPQQGMVRGVCAGIANYFDVPVKLVRILVVLSIFFALALFTLVAYIILSFALDPMPDNMAFGEQLPSSSELLDEVDRELAASETRLREMERYVTSDTFTLRSRFRQL,disrupting interaction strength

# Variants of: B5
# Details: with pspc_ecoli pspC
row,Variant,effect of a mutation on the interaction
1,L87A;L90A;L94A;M97A,with no effect

# Variants of: B6
# Details: with pspa_ecoli pspA
row,Variant,effect of a mutation on the interaction
1,L87A;L90A;L94A;M97A,with no effect
